Reference: patent US20230398218A1, “RAS NEOANTIGENS AND USES THEREOF” (priority 2020, published 2023)

Key:
Settings in all cases: remark: other sources report otherwise
HLA-A24.02 (human) [1] = experiment: pMHC-I complex dissociation at 37 C, radiolabeled b2m
HLA-A02.01 (human) [2] = experiment: as above
HLA-A02.01 (human) [3] = experiment: competition with radiolabeled reference peptide on prepared MHC class I
HLA-A24.02 (human) [4] = experiment: as above
HLA-B07.02 (human) [5] = experiment: pMHC-I complex dissociation at 37 C, radiolabeled b2m
HLA-B07.02 (human) [6] = experiment: competition with radiolabeled reference peptide on prepared MHC class I
HLA-A01.01 (human) [7] = experiment: pMHC-I complex dissociation at 37 C, radiolabeled b2m
HLA-A01.01 (human) [8] = experiment: competition with radiolabeled reference peptide on prepared MHC class I

Row | Stability (half-life (hr.)) (HLA-A24.02 (human) [1]) [min] | Stability (half-life (hr.)) (HLA-A02.01 (human) [2]) [min] | Affinity (HLA-A02.01 (human) [3]) [nM] | Affinity (HLA-A24.02 (human) [4]) [µM] | Stability (half-life (hr.)) (HLA-B07.02 (human) [5]) [h] | Affinity (HLA-B07.02 (human) [6]) [nM] | Stability (half-life (hr.)) (HLA-A01.01 (human) [7]) [min] | Affinity (HLA-A01.01 (human) [8]) [µM] | Binder
1 | 22.1 | 20.4 | 193 | – | – | – | – | – | QLIMQLMPF
2 | – | 0 | 5210 | – | – | – | – | – | QLIMQLMPFG
3 | 0 | 30.9 | 653 | 14.1 | – | – | – | – | IMQLMPFGCL
4 | – | 0 | 1010 | – | 0 | – | – | – | MANGSLLNYL
5 | – | 22.1 | 116 | – | 0 | 1590 | – | – | MQLMPFGCL
6 | 0 | 0 | 4940 | 4.1 | – | – | – | – | VQLIMQLMPF
7 | – | 183 | 67.7 | – | 0 | 866 | – | – | SLLNYLREM
8 | – | 0 | 537 | – | – | – | 0 | 8.28 | CLTSTVQLIM
9 | – | 22.2 | 1210 | – | – | – | – | – | IMQLMPFGC
10 | 0 | 22.9 | 16.3 | 18.9 | – | – | – | – | MQLMPFGCLL
11 | – | 0 | 3340 | – | – | – | – | – | LIMQLMPFG
12 | – | – | – | – | – | – | 6.22 | 2.89 | LTSTVQLIM
13 | – | 0 | 4000 | – | – | – | – | – | YMANGSLLN
14 | – | 0 | 7260 | – | – | – | – | – | STVQLIMQL
